# From patent publication US20220010021A1 (Sanofi, published 2022)
# Positions count from the first letter of the chain named. In names and notes the source's numbering stands.
# T1: human beta-Klotho (KLB) (human, UniProt Q86Z14 53-997)
# T1 construct: also called human KLB
# T1 sequence (looked up): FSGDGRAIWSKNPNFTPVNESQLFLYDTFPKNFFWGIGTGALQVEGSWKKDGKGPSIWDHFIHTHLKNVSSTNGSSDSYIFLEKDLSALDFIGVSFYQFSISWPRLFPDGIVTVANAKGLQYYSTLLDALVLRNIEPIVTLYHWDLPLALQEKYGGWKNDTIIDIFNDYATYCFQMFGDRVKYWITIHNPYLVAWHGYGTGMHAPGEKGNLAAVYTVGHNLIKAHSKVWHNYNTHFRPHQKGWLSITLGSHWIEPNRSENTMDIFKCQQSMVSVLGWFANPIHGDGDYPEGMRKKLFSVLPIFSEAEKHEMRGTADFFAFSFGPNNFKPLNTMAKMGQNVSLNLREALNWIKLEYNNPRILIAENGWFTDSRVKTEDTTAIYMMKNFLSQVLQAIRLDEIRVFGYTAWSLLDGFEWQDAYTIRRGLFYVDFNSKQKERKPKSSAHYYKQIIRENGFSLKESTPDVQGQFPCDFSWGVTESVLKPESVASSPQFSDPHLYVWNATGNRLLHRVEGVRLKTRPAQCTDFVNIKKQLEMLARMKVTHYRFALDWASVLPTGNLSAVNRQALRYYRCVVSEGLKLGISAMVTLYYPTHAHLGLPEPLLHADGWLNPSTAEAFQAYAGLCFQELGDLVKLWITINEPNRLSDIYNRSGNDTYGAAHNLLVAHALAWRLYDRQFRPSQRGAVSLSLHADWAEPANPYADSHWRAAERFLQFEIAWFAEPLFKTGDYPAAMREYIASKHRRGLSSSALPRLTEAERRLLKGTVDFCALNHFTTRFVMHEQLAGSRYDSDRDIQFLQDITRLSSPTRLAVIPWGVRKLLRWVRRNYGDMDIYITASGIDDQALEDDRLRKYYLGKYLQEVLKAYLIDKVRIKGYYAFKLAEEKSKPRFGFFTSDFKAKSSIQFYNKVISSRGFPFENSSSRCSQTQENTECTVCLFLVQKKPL
# B1: 16H7 variant, light chain N26T (antibody, human IgG4 S228P, lambda, V domains shown)
# VH: not shown
# VL: SYVLTQPPSVSVAPGQTARITCGGNTIGSESVHWYQQKPGQAPVLVVYDDSDRPSGIPERFSGSNSGNTATLTISRVEAGDEADYYCQVWDGNSDHVVFGGGTKLTVLG
# notes: IgG4 backbone
# B2: 16H7 variant, light chain D52T (antibody, human IgG4 S228P, lambda, V domains shown)
# VH: not shown
# VL: B1 VL with T26N, D52T
# notes: IgG4 backbone
# B3: 16H7 variant, light chain G23C (antibody, human IgG4 S228P, lambda, V domains shown)
# VH: not shown
# VL: B1 VL with G23C, T26N
# notes: IgG4 backbone
# B4: 16H7 variant, light chain D52R (antibody, human IgG4 S228P, lambda, V domains shown)
# VH: not shown
# VL: B1 VL with T26N, D52R
# notes: IgG4 backbone
# B5: 16H7 variant, light chain D52N (antibody, human IgG4 S228P, lambda, V domains shown)
# VH: not shown
# VL: B1 VL with T26N, D52N
# notes: IgG4 backbone
# B6: 16H7 variant, light chain D52E (antibody, human IgG4 S228P, lambda, V domains shown)
# VH: not shown
# VL: B1 VL with T26N, D52E
# notes: IgG4 backbone
# B7: 16H7 variant, light chain D52Y (antibody, human IgG4 S228P, lambda, V domains shown)
# VH: not shown
# VL: B1 VL with T26N, D52Y
# notes: IgG4 backbone
# B8: 16H7 variant, light chain D52K (antibody, human IgG4 S228P, lambda, V domains shown)
# VH: not shown
# VL: B1 VL with T26N, D52K
# notes: IgG4 backbone
# B9: 16H7 variant, light chain D52H (antibody, human IgG4 S228P, lambda, V domains shown)
# VH: not shown
# VL: B1 VL with T26N, D52H
# notes: IgG4 backbone
# B10: 16H7 variant, light chain D52Q (antibody, human IgG4 S228P, lambda, V domains shown)
# VH: not shown
# VL: B1 VL with T26N, D52Q
# notes: IgG4 backbone
# B11: 16H7 variant, light chain D52L (antibody, human IgG4 S228P, lambda, V domains shown)
# VH: not shown
# VL: B1 VL with T26N, D52L
# notes: IgG4 backbone
# B12: 16H7 variant, light chain D52I (antibody, human IgG4 S228P, lambda, V domains shown)
# VH: not shown
# VL: B1 VL with T26N, D52I
# notes: IgG4 backbone
# B13: 16H7 variant, light chain G23F (antibody, human IgG4 S228P, lambda, V domains shown)
# VH: not shown
# VL: B1 VL with G23F, T26N
# notes: IgG4 backbone
# B14: 16H7 variant, light chain D52V (antibody, human IgG4 S228P, lambda, V domains shown)
# VH: not shown
# VL: B1 VL with T26N, D52V
# notes: IgG4 backbone
# B15: 16H7 variant, light chain D52F (antibody, human IgG4 S228P, lambda, V domains shown)
# VH: not shown
# VL: B1 VL with T26N, D52F
# notes: IgG4 backbone
# B16: 16H7 variant, light chain G23H (antibody, human IgG4 S228P, lambda, V domains shown)
# VH: not shown
# VL: B1 VL with G23H, T26N
# notes: IgG4 backbone
# B17: 16H7 variant, light chain D52M (antibody, human IgG4 S228P, lambda, V domains shown)
# VH: not shown
# VL: B1 VL with T26N, D52M
# notes: IgG4 backbone
# B18: 16H7 variant, light chain G23I (antibody, human IgG4 S228P, lambda, V domains shown)
# VH: not shown
# VL: B1 VL with G23I, T26N
# notes: IgG4 backbone
# B19: 16H7 variant, light chain D52G (antibody, human IgG4 S228P, lambda, V domains shown)
# VH: not shown
# VL: B1 VL with T26N, D52G
# notes: IgG4 backbone
# B20: 16H7 variant, light chain G23D (antibody, human IgG4 S228P, lambda, V domains shown)
# VH: not shown
# VL: B1 VL with G23D, T26N
# notes: IgG4 backbone
# B21: 16H7 variant, light chain G23M (antibody, human IgG4 S228P, lambda, V domains shown)
# VH: not shown
# VL: B1 VL with G23M, T26N
# notes: IgG4 backbone
# B22: 16H7 variant, light chain D52A (antibody, human IgG4 S228P, lambda, V domains shown)
# VH: not shown
# VL: B1 VL with T26N, D52A
# notes: IgG4 backbone
# B23: 16H7 variant, light chain G23A (antibody, human IgG4 S228P, lambda, V domains shown)
# VH: not shown
# VL: B1 VL with G23A, T26N
# notes: IgG4 backbone
# B24: 16H7 variant, light chain G23K (antibody, human IgG4 S228P, lambda, V domains shown)
# VH: not shown
# VL: B1 VL with G23K, T26N
# notes: IgG4 backbone
# B25: 16H7 variant, light chain D52S (antibody, human IgG4 S228P, lambda, V domains shown)
# VH: not shown
# VL: B1 VL with T26N, D52S
# notes: IgG4 backbone
# B26: 16H7 variant, light chain G23L (antibody, human IgG4 S228P, lambda, V domains shown)
# VH: not shown
# VL: B1 VL with G23L, T26N
# notes: IgG4 backbone
# B27: 16H7 variant with light chain substitution R53V (antibody, V domains shown)
# VH: not shown
# VL: B1 VL with T26N, R53V
# B28: 16H7 variant with light chain substitution S51F (antibody, V domains shown)
# VH: not shown
# VL: B1 VL with T26N, S51F
# B29: 16H7 variant with light chain substitution S55A (antibody, V domains shown)
# VH: not shown
# VL: B1 VL with T26N, S55A
# B30: 16H7 variant with light chain substitution P54A (antibody, V domains shown)
# VH: not shown
# VL: B1 VL with T26N, P54A
# B31: 16H7 variant with light chain substitution R53N (antibody, V domains shown)
# VH: not shown
# VL: B1 VL with T26N, R53N
# B32: 16H7 light chain variant G28Q (antibody, human IgG4 S228P, lambda, V domains shown)
# VH: not shown
# VL: B1 VL with T26N, G28Q
# B33: 16H7 light chain variant S29Y (antibody, human IgG4 S228P, lambda, V domains shown)
# VH: not shown
# VL: B1 VL with T26N, S29Y
# B34: 16H7 light chain variant G28V (antibody, human IgG4 S228P, lambda, V domains shown)
# VH: not shown
# VL: B1 VL with T26N, G28V
# B35: 16H7 variant, light chain R53V (antibody, human IgG4 S228P, lambda, V domains shown)
# VH: not shown
# VL: B1 VL with T26N, R53V
# B36: 16H7 variant, light chain N25F (antibody, human IgG4 S228P, lambda, V domains shown)
# VH: not shown
# VL: B1 VL with N25F, T26N
# B37: 16H7 variant, light chain G24P (antibody, human IgG4 S228P, lambda, V domains shown)
# VH: not shown
# VL: B1 VL with G24P, T26N
# B38: 16H7 variant, light chain Q88S (antibody, human IgG4 S228P, lambda, V domains shown)
# VH: not shown
# VL: B1 VL with T26N, Q88S
# B39: 16H7 variant, light chain R53N (antibody, human IgG4 S228P, lambda, V domains shown)
# VH: not shown
# VL: B1 VL with T26N, R53N
# B40: 16H7 variant, light chain S55A (antibody, human IgG4 S228P, lambda, V domains shown)
# VH: not shown
# VL: B1 VL with T26N, S55A
# B41: 16H7 variant, light chain P54A (antibody, human IgG4 S228P, lambda, V domains shown)
# VH: not shown
# VL: B1 VL with T26N, P54A
# Molecular target: T1, human beta-Klotho (KLB)
# Assay: BLI off-rate screen (Octet), Ab captured via Fc;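 note: antibody supernatants applied at 25 µg/mL, dissociation monitored over 1800 s in D-PBS with 0.1% BSA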
# Throughout, for Mean E max (%): reference of the scale not given here.
# Throughout, for Mean E max, Luciferase reporter gene assay: reference of the scale not given here.
row,Binder,koff [s⁻¹]
1,B1,4.4e-05
2,B2,1.8e-05
3,B3,4.1e-05
4,B4,2.9e-05
5,B5,6.9e-07
6,B6,< 1e-05
7,B7,9.1e-05
8,B8,9.2e-05
9,B9,3.6e-05
10,B10,2.7e-05
11,B11,5.7e-05
12,B12,2.8e-05
13,B13,5e-05
14,B14,6.9e-05
15,B15,7.9e-06
16,B16,5.2e-06
17,B17,2.4e-05
18,B18,2.9e-05
19,B19,3.7e-05
20,B20,2.2e-05
21,B21,4.1e-05
22,B22,4.8e-05
23,B23,4e-05
24,B24,3.9e-05
25,B25,4e-05
26,B26,9.1e-05

# Molecular target: human FGFR1c/KLB receptor complex on iLite FGF21 Assay Ready Cells (human, UniProt P11362 22-822; Q86Z14 1-1044)
# Assay: cell-based or functional assay
# Chain of human FGFR1c/KLB receptor complex on iLite FGF21 Assay Ready Cells (P11362 22-822, chain 1 of 2): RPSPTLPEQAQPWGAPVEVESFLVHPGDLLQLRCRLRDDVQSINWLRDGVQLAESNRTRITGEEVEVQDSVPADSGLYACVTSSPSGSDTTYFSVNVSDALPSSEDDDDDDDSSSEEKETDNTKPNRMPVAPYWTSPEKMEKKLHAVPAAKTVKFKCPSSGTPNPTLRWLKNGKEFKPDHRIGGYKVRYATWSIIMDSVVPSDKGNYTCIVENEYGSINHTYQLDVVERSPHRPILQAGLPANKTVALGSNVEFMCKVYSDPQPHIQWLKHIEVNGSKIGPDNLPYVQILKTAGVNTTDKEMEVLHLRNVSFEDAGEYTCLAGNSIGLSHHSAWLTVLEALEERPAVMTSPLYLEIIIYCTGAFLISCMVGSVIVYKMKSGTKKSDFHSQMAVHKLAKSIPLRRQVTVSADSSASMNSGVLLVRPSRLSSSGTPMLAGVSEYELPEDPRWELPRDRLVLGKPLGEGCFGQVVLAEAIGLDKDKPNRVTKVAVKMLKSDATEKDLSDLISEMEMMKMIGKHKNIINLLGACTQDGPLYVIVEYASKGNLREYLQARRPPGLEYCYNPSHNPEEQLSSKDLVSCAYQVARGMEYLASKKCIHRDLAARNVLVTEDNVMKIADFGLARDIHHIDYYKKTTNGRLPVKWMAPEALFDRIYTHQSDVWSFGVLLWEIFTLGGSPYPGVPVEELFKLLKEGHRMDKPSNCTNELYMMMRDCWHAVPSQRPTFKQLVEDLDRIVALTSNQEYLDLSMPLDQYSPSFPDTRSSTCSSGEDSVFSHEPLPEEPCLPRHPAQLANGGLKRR
# Chain of human FGFR1c/KLB receptor complex on iLite FGF21 Assay Ready Cells (Q86Z14 whole entry, chain 2 of 2): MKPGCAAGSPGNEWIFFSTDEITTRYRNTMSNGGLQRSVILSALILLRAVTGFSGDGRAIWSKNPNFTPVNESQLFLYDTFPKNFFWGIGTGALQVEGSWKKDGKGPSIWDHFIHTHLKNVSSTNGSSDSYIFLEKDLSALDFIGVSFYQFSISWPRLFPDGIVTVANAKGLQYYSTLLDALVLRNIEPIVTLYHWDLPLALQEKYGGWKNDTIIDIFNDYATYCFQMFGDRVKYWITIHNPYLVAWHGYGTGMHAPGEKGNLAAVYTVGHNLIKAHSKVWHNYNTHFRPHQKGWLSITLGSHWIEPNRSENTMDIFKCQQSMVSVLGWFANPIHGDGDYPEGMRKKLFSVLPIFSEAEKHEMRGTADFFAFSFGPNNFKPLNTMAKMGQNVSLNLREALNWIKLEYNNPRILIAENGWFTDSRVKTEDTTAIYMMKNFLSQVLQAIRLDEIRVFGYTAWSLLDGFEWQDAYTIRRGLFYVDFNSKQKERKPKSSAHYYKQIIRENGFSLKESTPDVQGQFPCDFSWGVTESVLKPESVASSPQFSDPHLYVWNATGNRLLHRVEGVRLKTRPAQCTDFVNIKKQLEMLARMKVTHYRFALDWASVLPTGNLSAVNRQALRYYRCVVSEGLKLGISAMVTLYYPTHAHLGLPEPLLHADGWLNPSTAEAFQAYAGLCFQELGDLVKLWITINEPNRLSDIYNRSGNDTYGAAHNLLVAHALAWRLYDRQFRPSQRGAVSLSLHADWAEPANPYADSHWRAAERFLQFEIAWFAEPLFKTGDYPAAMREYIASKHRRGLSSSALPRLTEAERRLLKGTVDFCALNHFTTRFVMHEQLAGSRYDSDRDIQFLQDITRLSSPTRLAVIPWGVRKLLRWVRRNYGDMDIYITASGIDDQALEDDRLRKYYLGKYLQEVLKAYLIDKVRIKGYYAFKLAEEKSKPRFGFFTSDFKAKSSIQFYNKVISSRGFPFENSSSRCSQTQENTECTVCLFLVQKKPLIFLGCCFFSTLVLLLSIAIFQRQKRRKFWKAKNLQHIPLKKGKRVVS
Binder,Mean E max (%),Mean EC50 [nM]
B27,101,–
B28,100,0.12
B29,110,–
B30,105,–
B31,100,–

# Molecular target: cell surface receptor composed of FGFR1c and co-receptor beta-Klotho (KLB) (human, UniProt P11362 22-822; Q86Z14 1-1044)
# Assay: cell-based or functional assay
# Chain of cell surface receptor composed of FGFR1c and co-receptor beta-Klotho (KLB) (P11362 22-822, chain 1 of 2): as the sequence (P11362 22-822, chain 1 of 2) above
# Chain of cell surface receptor composed of FGFR1c and co-receptor beta-Klotho (KLB) (Q86Z14 whole entry, chain 2 of 2): as the sequence (Q86Z14 whole entry, chain 2 of 2) above
row,Binder,"Mean E max, Luciferase reporter gene assay [%]"
1,B32,104
2,B33,102
3,B34,97

# Molecular target: human FGFR1c/KLB cell surface receptor complex on iLite FGF21 reporter cells (human, UniProt P11362 22-822; Q86Z14 1-1044)
# Assay: cell-based or functional assay
# Chain of human FGFR1c/KLB cell surface receptor complex on iLite FGF21 reporter cells (P11362 22-822, chain 1 of 2): as the sequence (P11362 22-822, chain 1 of 2) above
# Chain of human FGFR1c/KLB cell surface receptor complex on iLite FGF21 reporter cells (Q86Z14 whole entry, chain 2 of 2): as the sequence (Q86Z14 whole entry, chain 2 of 2) above
Binder,Mean E max (%),Mean EC50 [nM]
B1,105,0.143
B35,101,–
B2,100,0.109
B3,108,0.087
B4,96,0.091
B36,104,–
B5,115,0.124
B6,123,0.114
B37,110,–
B7,102,0.11
B8,101,0.117
B38,104,–
B9,97,0.109
B10,101,0.107
B39,100,–
B11,106,0.107
B40,110,–

Binder,Mean E max (%),Mean EC50 [nM]
B12,110,0.14
B13,98,0.109
B14,114,0.125
B15,102,0.105
B16,95,0.096
B17,105,0.144
B18,99,0.128
B19,109,0.125
B20,108,0.104
B21,91,0.122
B22,101,0.163
B41,105,–
B23,107,0.122
B24,90,0.104
B25,108,0.098
B26,106,0.131
